This is an account of results in patent publication US20210293825.

In this data set the target is HSP90β/CDC37 heterocomplex of purified recombinant HSP90β and CDC37 (in vitro kinase assay), P08238.
HSP90β/CDC37 heterocomplex of purified recombinant HSP90β and CDC37 (in vitro kinase assay), P08238, sequence (P08238 whole entry, chain 1 of 2): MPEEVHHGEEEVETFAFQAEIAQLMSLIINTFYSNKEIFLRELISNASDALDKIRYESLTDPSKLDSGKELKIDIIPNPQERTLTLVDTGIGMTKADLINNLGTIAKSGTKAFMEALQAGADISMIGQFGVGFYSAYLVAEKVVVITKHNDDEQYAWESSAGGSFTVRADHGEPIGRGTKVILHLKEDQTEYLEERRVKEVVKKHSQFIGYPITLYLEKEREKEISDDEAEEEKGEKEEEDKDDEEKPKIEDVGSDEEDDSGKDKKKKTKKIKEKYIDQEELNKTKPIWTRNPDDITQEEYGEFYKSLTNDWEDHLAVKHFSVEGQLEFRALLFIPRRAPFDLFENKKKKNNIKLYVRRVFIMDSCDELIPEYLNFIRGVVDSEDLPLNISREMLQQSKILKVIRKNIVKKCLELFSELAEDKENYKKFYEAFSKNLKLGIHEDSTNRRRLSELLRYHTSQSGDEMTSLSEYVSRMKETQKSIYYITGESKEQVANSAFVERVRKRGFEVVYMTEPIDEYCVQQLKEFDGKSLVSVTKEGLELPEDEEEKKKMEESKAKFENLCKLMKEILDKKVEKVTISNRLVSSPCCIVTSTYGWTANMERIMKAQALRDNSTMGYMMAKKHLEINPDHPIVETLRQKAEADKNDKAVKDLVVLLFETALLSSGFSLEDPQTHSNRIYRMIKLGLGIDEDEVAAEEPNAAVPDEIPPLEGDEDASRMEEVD
HSP90β/CDC37 heterocomplex of purified recombinant HSP90β and CDC37 (in vitro kinase assay), P08238, sequence (chain, as listed by the source, chain 2 of 2): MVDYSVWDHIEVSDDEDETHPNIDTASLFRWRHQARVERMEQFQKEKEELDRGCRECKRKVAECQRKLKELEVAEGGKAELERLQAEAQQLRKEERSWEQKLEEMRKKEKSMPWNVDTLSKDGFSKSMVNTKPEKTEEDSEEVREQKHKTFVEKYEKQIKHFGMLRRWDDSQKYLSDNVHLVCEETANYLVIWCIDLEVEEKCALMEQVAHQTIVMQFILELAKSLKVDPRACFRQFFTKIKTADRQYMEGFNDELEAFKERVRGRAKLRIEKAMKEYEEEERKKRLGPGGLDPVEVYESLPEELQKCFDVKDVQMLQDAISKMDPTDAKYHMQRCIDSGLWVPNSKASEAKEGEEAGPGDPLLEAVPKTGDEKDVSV

B1: purified recombinant RAF1 (Raf-1, EMD Millipore #17-360) (protein)
chain: SQPKTPVPAQRERAPVSGTQEKNKIRPRGQRDSSYYWEIEASEVMLSTRIGSGSFGTVYKGKWHGDVAVKILKVVDPTPEQFQAFRNEVAVLRKTRHVNILLFMGYMTKDNLAIVTQWCEGSSLYKHLHVQETKFQMFQLIDIARQTAQGMDYLHAKNIIHRDMKSNNIFLHEGLTVKIGDFGLATVKSRWSGSQQVEQPTGSVLWMAPEVIRMQDNNPFSFQSDVYSYGIVLYELMTGELPYSHINNRDQIIFMVGRGYASPDLSKLYKNCPKAMKRLVADCVKKVKEERPLFPQILSSIELLQHSLPKINRSASEPSLHRAAHTEDINACTLTTSPRLPVF
In the case of B1, the “RAF1 activity (autophosphorylation of RAF1 in an in vitro kinase assay, Western blot)” value was “In the absence of CDC37/HSP90β heterocomplex, RAF1 activity was much lower”.

B2: purified recombinant SGK3 (Thermo Scientific #PV3859) (protein)
chain: MQRDHTMDYKESCPSVSIPSSDEHREKKKRFTVYKVLVSVGRSEWFVFRRYAEFDKLYNTLKKQFPAMALKIPAKRIFGDNFDPDFIKQRRAGLNEFIQNLVRYPELYNHPDVRAFLQMDSPKHQSDPSEDEDERSSQKLHSTSQNINLGPSGNPHAKPTDFDFLKVIGKGSFGKVLLAKRKLDGKFYAVKVLQKKIVLNRKEQKHIMAERNVLLKNVKHPFLVGLHYSFQTTEKLYFVLDFVNGGELFFHLQRERSFPEHRARFYAAEIASALGYLHSIKIVYRDLKPENILLDSVGHVVLTDFGLCKEGIAISDTTTTFCGTPEYLAPEVIRKQPYDNTVDWWCLGAVLYEMLYGLPPFYCRDVAEMYDNILHKPLSLRPGVSLTAWSILEELLEKDRQNRLGAKEDFLEIQNHPFFESLSWADLVQKKIPPPFNPNVAGPDDIRNFDTAFTEETVPYSVCVSSDYSIVNASVLEADDAFVGFSYAPPSEDLFL
B2: the “phosphorylation of HSP90β (in vitro kinase assay, Western blot)” value was “SGK3 increased phosphorylation of HSP90β, and that phosphorylation was further increased in the presence of KBU2046”.
